B2: recombinant soluble ciliary neurotrophic factor receptor α (receptor, human, UniProt P26992 23-342, looked up)
chain: QRHSPQEAPHVQYERLGSDVTLPCGTANWDAAVTWRVNGTDLAPDLLNGSQLVLHGLELGHSGLYACFHRDSWHLRHQVLLHVGLPPREPVLSCRSNTYPKGFYCSWHLPTPTYIPNTFNVTVLHGSKIMVCEKDPALKNRCHIRYMHLFSTIKYKVSISVSNALGHNATAITFDEFTIVKPDPPENVVARPVPSNPRRLEVTWQTPSTWPDPESFPLKFFLRYRPLILDQWQHVELSDGTAHTITDAYAGKEYIIQVAAKDNEIGTWSDWSVAAHATPWTEEPRHLTTEAQAAETTTSTTSSLAPPPTTKICDPGELGS
notes: CNTF receptor α, human, soluble recombinant form; also called sCNTFRα; soluble CNTFRα; source: bought: R&D Systems
B3: cardiotrophin-like cytokine:cytokine-like factor-1 heterodimer (complex, human)
chain 1: LNRTGDPGPGPSIQKTYDLTRYLEHQLRSLAGTYLNYLGPPFNEPDFNPPRLGAETLPRATVDLEVWRSLNDKLRLTQNYEAYSHLLCYLRGLNRQAATAELRRSLAHFCTSLQGLLGSIAGVMAALGYPLPQPLPGTEPTWTPGPAHSDFLQKMDDFWLLKELQTWLWRSAKDFNRLKKKMQPPAAAVTLHLGAHGF
chain 2: AHTAVISPQDPTLLIGSSLLATCSVHGDPPGATAEGLYWTLNGRRLPPELSRVLNASTLALALANLNGSRQRSGDNLVCHARDGSILAGSCLYVGLPPEKPVNISCWSKNMKDLTCRWTPGAHGETFLHTNYSLKYKLRWYGQDNTCEEYHTVGPHSCHIPKDLALFTPYEIWVEATNRLGSARSDVLTLDILDVVTTDPPPDVHVSRVGGLEDQLSVRWVSPPALKDFLFQAKYQIRYRVEDSVDWKVVDDVSNQTSCRLAGLKPGTVYFVQVRCNPFGIYGSKKAGIWSEWSHPTAASTPRSERPGPGGGACEPRGGEPSSGPVRRELKQFLGWLKKHAYCSNLSFRLYDQWRAWMQKSHKTRNQDEGILPSGRRGTARGPAR
notes: cardiotrophin-like cytokine (CLC), human, subunit of the bought recombinant heterodimer; cytokine-like factor-1 (CLF-1; cytokine receptor-like factor 1), human, subunit of the bought recombinant heterodimer; also called CLC:CLF-1; His-tagged CLC:CLF-1; source: bought: R&D Systems (insect cells)

Experiments:
[1] = molecular target: T1, soluble sorLA (entire luminal part of sorLA) (human, UniProt Q92673 82-2137); experiment: SPR; Biacore 3000, CM5 chip; soluble sorLA (entire luminal part) immobilised at 66 to 86 fmol/mm^2; 25°C; 10 mM HEPES, 150 mM NaCl, 1.5 mM CaCl2, 1 mM EGTA, 0.005% Tween 20, pH 7.4; Langmuir 1:1 model, global fitting; details: both partners purified
T1 construct: sorLA, human cDNA, the entire luminal (extracellular) part; also called luminal domain of sorLA; ectodomain of sorLA

[2] = molecular target: T2, recombinant soluble ciliary neurotrophic factor receptor α (human), P26992; experiment: SPR; Biacore 3000, CM5 chip; sCNTFRα immobilised at 66 to 86 fmol/mm^2; 25°C; 10 mM HEPES, 150 mM NaCl, 1.5 mM CaCl2, 1 mM EGTA, 0.005% Tween 20, pH 7.4; Langmuir 1:1 model, global fitting; details: remark: other sources report otherwise
T2 chain: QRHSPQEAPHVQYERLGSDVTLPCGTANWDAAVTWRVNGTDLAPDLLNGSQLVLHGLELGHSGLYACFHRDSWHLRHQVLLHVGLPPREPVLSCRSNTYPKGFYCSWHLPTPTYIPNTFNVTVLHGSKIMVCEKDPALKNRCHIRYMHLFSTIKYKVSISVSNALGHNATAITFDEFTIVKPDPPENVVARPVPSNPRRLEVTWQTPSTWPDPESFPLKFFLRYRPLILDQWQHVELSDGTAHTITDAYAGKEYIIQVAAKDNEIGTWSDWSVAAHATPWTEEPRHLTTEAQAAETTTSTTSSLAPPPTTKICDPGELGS

[3] = molecular target: B3; experiment: as above; details: both partners purified
[4] = molecular target: T1, soluble sorLA (entire luminal part of …); experiment: SPR; immobilised sorLA preincubated with buffer or with 5 μM inhibitor (sorLA propeptide or RAP) before the ligand was added; details: both partners purified
sorLA Vps10p-D = molecular target: T3, sorLA Vps10p-D (human); experiment: SPR
T3 chain: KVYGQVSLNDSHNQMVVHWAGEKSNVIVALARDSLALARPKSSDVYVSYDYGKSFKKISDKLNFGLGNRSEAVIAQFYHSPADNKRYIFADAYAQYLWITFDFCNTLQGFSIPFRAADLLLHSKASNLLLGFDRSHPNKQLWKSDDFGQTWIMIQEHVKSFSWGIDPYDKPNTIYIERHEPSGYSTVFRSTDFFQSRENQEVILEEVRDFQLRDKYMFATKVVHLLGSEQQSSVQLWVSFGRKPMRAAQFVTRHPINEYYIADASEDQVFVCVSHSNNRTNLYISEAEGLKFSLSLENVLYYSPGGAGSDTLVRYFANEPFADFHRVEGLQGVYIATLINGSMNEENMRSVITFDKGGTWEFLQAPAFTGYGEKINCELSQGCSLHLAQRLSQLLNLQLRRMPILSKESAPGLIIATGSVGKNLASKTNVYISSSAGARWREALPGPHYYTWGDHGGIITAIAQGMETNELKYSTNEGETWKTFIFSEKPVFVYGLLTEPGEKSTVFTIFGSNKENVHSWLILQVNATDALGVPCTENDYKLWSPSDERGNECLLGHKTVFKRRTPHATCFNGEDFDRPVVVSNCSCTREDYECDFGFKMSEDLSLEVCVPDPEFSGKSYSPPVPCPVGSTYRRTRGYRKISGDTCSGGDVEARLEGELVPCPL

[5] = molecular target: full-length sorLA in transfected HEK293 cells (human, UniProt Q92673 82-2214); experiment: cell-based or functional assay
[6] = molecular target: B2; experiment: SPR; Biacore 3000, CM5 chip; sCNTFRα immobilised at 66 to 86 fmol/mm^2; 25°C; 10 mM HEPES, 150 mM NaCl, 1.5 mM CaCl2, 1 mM EGTA, 0.005% Tween 20, pH 7.4; Langmuir 1:1 model, global fitting; details: both partners purified

T1 sequence (Q92673 82-2137): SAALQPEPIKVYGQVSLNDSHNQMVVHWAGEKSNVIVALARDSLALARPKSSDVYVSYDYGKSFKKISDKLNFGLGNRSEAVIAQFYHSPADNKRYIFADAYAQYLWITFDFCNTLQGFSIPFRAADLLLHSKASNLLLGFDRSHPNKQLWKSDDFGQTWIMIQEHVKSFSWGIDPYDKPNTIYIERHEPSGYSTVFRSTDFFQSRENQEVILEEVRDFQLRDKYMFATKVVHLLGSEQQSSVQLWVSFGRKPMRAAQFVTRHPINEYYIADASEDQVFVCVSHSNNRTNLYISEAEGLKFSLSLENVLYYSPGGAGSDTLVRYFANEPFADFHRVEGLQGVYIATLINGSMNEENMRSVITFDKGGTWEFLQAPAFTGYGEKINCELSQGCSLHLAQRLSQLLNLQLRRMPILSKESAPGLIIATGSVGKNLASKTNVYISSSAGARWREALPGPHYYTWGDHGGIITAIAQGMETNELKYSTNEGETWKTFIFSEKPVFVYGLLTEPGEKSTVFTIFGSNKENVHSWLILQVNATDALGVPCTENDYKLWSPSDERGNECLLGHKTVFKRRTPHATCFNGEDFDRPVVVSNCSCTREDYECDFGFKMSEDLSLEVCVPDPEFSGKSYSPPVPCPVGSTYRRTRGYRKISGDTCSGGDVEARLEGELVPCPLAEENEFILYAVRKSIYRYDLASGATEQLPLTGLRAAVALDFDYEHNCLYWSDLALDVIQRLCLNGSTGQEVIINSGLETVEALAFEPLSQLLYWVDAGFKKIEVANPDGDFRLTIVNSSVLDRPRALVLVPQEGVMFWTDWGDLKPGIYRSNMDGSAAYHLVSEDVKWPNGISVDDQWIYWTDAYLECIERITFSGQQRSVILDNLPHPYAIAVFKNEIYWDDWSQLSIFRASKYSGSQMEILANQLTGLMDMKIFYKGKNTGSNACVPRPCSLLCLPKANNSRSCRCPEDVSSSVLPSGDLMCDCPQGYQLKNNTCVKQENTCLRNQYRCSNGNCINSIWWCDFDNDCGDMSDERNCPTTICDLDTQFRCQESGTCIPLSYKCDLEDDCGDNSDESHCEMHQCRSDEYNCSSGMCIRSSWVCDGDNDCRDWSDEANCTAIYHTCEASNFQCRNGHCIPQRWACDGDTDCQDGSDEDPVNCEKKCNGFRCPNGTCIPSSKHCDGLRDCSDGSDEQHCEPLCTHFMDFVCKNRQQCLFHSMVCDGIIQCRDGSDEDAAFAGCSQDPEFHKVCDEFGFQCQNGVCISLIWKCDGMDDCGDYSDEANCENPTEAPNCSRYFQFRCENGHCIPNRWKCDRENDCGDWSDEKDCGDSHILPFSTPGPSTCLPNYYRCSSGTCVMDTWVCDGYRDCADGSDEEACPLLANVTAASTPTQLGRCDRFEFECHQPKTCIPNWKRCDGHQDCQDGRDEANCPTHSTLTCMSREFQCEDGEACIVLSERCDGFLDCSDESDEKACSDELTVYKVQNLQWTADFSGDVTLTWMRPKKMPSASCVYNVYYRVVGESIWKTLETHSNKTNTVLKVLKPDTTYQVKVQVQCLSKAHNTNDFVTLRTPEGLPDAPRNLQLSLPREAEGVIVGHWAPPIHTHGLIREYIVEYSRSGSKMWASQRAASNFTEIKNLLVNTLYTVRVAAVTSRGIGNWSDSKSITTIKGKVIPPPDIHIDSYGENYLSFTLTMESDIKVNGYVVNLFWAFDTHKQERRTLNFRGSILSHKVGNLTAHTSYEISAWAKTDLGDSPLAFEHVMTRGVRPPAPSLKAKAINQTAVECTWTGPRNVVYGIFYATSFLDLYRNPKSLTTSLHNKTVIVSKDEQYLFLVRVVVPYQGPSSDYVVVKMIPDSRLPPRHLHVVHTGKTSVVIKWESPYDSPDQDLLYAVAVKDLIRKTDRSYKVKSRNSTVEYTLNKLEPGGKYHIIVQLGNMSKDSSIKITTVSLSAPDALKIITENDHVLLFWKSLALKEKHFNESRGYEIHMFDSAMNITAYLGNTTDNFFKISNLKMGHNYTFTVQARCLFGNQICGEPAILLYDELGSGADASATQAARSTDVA
Chain of full-length sorLA in transfected HEK293 cells (Q92673 82-2214): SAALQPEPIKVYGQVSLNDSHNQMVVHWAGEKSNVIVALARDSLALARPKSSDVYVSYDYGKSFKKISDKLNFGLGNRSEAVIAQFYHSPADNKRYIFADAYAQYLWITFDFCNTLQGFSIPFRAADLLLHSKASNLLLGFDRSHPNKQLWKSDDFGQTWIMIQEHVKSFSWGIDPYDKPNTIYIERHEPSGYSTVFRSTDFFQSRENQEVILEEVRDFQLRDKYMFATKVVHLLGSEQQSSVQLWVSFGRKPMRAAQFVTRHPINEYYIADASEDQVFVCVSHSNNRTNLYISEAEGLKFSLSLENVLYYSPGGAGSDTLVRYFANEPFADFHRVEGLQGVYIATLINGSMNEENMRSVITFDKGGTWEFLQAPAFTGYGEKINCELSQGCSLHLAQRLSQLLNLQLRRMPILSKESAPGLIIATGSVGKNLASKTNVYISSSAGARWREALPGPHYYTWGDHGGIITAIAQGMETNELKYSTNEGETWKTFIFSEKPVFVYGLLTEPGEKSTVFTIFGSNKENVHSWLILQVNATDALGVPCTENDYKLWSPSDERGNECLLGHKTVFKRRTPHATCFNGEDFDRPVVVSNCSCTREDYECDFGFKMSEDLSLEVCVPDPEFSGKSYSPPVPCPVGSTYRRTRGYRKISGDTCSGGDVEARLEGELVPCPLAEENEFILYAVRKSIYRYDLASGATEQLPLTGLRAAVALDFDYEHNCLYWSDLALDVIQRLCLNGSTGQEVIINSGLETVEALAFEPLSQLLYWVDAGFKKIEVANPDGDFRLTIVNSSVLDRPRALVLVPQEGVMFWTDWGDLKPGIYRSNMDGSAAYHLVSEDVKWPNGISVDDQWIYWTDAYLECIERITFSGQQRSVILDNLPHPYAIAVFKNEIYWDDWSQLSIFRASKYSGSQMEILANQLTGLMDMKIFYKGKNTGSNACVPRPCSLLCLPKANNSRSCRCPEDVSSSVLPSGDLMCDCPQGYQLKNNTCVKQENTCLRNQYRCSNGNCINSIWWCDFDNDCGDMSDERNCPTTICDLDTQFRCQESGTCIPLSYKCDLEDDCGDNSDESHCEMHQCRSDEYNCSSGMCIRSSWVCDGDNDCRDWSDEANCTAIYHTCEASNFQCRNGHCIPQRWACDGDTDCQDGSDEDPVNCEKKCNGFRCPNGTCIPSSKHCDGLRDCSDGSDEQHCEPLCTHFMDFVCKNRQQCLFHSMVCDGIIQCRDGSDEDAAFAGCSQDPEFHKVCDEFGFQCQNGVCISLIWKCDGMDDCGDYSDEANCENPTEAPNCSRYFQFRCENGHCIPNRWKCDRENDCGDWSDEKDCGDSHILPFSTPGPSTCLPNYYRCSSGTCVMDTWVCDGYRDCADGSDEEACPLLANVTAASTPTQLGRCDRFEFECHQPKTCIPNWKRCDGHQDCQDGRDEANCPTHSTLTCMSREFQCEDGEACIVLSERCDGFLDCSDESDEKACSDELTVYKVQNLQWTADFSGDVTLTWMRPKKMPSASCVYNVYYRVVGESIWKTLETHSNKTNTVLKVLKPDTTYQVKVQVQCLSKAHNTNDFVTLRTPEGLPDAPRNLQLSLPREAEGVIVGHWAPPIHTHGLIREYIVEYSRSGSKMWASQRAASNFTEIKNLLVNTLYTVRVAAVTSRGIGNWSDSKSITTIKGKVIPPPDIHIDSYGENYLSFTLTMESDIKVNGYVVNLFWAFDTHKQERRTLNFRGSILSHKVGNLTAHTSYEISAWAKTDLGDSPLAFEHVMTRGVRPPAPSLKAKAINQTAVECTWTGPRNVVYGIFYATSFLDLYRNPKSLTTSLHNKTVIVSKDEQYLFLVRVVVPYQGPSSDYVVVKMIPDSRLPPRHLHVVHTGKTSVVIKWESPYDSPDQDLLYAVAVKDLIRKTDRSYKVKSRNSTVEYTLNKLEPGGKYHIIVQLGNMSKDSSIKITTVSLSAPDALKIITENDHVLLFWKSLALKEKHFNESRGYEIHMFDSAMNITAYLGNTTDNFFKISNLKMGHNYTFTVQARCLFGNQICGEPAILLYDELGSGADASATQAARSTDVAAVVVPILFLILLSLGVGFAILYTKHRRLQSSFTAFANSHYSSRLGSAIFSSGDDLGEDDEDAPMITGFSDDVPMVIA

B1: CLF-1–His (His-tagged cytokine-like factor-1) (natural protein, human, UniProt O75462 38-422, looked up)
chain: AHTAVISPQDPTLLIGSSLLATCSVHGDPPGATAEGLYWTLNGRRLPPELSRVLNASTLALALANLNGSRQRSGDNLVCHARDGSILAGSCLYVGLPPEKPVNISCWSKNMKDLTCRWTPGAHGETFLHTNYSLKYKLRWYGQDNTCEEYHTVGPHSCHIPKDLALFTPYEIWVEATNRLGSARSDVLTLDILDVVTTDPPPDVHVSRVGGLEDQLSVRWVSPPALKDFLFQAKYQIRYRVEDSVDWKVVDDVSNQTSCRLAGLKPGTVYFVQVRCNPFGIYGSKKAGIWSEWSHPTAASTPRSERPGPGGGACEPRGGEPSSGPVRRELKQFLGWLKKHAYCSNLSFRLYDQWRAWMQKSHKTRNQDEGILPSGRRGTARGPAR
notes: signal peptide in the construct; human CLF-1 coding cDNA (ImaGenes) amplified from the start codon to the C terminus, secreted into the medium; The second codon of the forward primer reads GCC (Ala); this lies in the signal peptide; The introduction gives 385 amino acids for human CLF-1; also called His-tagged CLF-1; source: HEK293 cells transfected, purified from serum-free medium (Talon resin) …
Work on B1 yielded a Kd [1] of 4 nM and a Kd [2] of 4 nM.

B2 was tested, and the Kd [3] was 0.3 nM, the binding result [4] was “binds” and the Kd (sorLA Vps10p-D) was about 14 nM.

B3 was tested, and the Kd [1] was 5 nM and the “pSTAT3 in CNTFRα-deficient Ba/F3 cells (gp130/LIFRβ) stimulated with CLC:CLF-1 and sCNTFRα, sorLA transfectants against untransfected cells” value [5] was about 4 fold.

B4: cardiotrophin-like cytokine (ligand, human, UniProt Q9UBD9 28-225, looked up)
chain: LNRTGDPGPGPSIQKTYDLTRYLEHQLRSLAGTYLNYLGPPFNEPDFNPPRLGAETLPRATVDLEVWRSLNDKLRLTQNYEAYSHLLCYLRGLNRQAATAELRRSLAHFCTSLQGLLGSIAGVMAALGYPLPQPLPGTEPTWTPGPAHSDFLQKMDDFWLLKELQTWLWRSAKDFNRLKKKMQPPAAAVTLHLGAHGF
notes: cardiotrophin-like cytokine (CLC), human recombinant; also called CLC; source: bought: R&D Systems (bacteria)
B4 was tested, and the Kd [6] was 66 nM.
